The values that follow are results of earlier work, collected in patent publication US12485093B2, “Composition for use as an antiviral in the form of nasal drops and in nebulisers” (DERMOPARTNERS, S.L., priority 2021, dated 2025).

Like-named read-outs stand apart in the source and are kept apart here.

The IC50 is the concentration that inhibits the measured activity by half.

For data set [1], the system named is SARS-CoV-2. Particulars: African green monkey kidney epithelial cells, 1 mg/ml.
Data set [2] concerns SARS-CoV-2. The conditions noted are these: adenocarcinoma human alveolar basal epithelial cells (A549), 1 mg/ml.
For data set [3], the system named is viral entry into host cells. The conditions noted are these: by interacting with viral and/or cell surface receptors.

B1: lactoferrin (protein, UniProt P02788 20-710, looked up)
Lactotransferrin: GRRRSVQWCAVSQPEATKCFQWQRNMRKVRGPPVSCIKRDSPIQCIQAIAENRADAVTLDGGFIYEAGLAPYKLRPVAAEVYGTERQPRTHYYAVAVVKKGGSFQLNELQGLKSCHTGLRRTAGWNVPIGTLRPFLNWTGPPEPIEAAVARFFSASCVPGADKGQFPNLCRLCAGTGENKCAFSSQEPYFSYSGAFKCLRDGAGDVAFIRESTVFEDLSDEAERDEYELLCPDNTRKPVDKFKDCHLARVPSHAVVARSVNGKEDAIWNLLRQAQEKFGKDKSPKFQLFGSPSGQKDLLFKDSAIGFSRVPPRIDSGLYLGSGYFTAIQNLRKSEEEVAARRARVVWCAVGEQELRKCNQWSGLSEGSVTCSSASTTEDCIALVLKGEADAMSLDGGYVYTAGKCGLVPVLAENYKSQQSSDPDPNCVDRPVEGYLAVAVVRRSDTSLTWNSVKGKKSCHTAVDRTAGWNIPMGLLFNQTGSCKFDEYFSQSCAPGSDPRSNLCALCIGDEQGENKCVPNSNERYYGYTGAFRCLAENAGDVAFVKDVTVLQNTDGNNNEAWAKDLKLADFALLCLDGKRKPVTEARSCHLAMAPNHAVVSRMDKVERLKQVLLHQQAKFGRNGSDCPDKFCLFQSETKNLLFNDNTECLARLHGKTTYEKYLGPQYVAGITNLKKCSTSPLLEACEFLRK
notes: naturally occurring, non-toxic glycoprotein, multifunctional protein of the immune system
As to B1, the “inhibition of SARS-CoV-2” value with SARS-CoV-2 [1] and in the data set with SARS-CoV-2 [2] was “capable of inhibiting SARS-CoV-2” throughout. Besides, the “block of viral entry into host cells” value in data set [3] was “managed to block viral entry into host cells”. Besides, in the data set with SARS-CoV-2 infection, the “effect on efficacy of remdesivir and hydroxychloroquine” value was “potentiated the efficacy of both remdesivir and hydroxychloroquine”. In addition, the IC50 in the data set on SARS-CoV-2 infection (read-out: IC50 of inhibition of SARS-CoV-2 infection) is 0.308 µM.
